T1: SASPase_28 (Homo sapiens, UniProt Q53RT3)
T1 construct: made in house
T1 sequence (Q53RT3 85-343): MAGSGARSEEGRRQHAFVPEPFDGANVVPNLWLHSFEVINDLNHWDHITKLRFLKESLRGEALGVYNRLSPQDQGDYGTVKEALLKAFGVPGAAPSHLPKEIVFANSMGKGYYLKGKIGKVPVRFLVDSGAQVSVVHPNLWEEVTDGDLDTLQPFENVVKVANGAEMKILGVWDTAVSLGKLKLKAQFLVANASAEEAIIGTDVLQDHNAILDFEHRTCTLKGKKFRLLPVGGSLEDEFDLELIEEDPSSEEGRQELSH

T2: filaggrin-2 (FLG2) (Homo sapiens, UniProt Q5D862)
T2 construct: expressed in transfected cells; host or cells: double-hybrid system
T2 sequence (Q5D862 2-213): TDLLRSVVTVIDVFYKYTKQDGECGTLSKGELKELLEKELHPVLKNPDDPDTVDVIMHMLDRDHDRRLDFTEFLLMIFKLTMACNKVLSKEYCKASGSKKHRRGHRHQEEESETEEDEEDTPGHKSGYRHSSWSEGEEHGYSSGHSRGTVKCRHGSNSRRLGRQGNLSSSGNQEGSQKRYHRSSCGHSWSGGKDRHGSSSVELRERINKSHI

T3: SASPase (Homo sapiens, UniProt Q53RT3)
T3 construct: expressed in transfected cells; host or cells: double-hybrid system
T3 sequence (Q53RT3 1-259 isoform Q53RT3-2): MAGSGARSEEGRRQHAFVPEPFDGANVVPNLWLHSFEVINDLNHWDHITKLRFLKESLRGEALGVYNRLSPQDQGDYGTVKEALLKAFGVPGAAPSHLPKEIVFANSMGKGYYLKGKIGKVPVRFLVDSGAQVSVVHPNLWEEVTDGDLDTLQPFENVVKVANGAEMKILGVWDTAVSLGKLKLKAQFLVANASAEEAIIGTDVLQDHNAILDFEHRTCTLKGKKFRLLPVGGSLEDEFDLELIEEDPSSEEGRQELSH


How the values were obtained:
SASPase_28 = molecular target: T1, SASPase_28; experiment: SASPase proteolytic activity assay with Dabcyl-QIDRIMEK-Edans substrate; type: biochemical; conditions: for ability to increase the catalytic activity of SASPase: same enzymatic assay, FLG2-Hs replaced with the synthesized peptide
Procedure: A recombinant 28 kDa SASPase (SASPase_28) constituted of the amino acids extending from positions 85 to 343 of the sequence represented by the reference Q53RT3 (Uniprot/Swissprot Ref.) was prepared as described by Bernard et al., (J. Invest. Dermatol., 2005, 125: 278-287).
SASPase_28 at 0.025 mg/ml is in the presence of a colorimetric substrate, Dabcyl-QIDRIMEK-Edans, at 0.01 mM (Production Jerini Peptide Ref. D17: JPT Peptide Technologies GmbH) in a PBS buffer.
The hydrolysis of the colorimetric substrate by the activated SASPase results in the separation of the EDANS fluorochrome and of its deactivator (or quencher) Dabcyl, and in an increase in the EDANS fluorescence.
The fluorescent signal is measured at λex 340 nm/λem 490 nm. The fluorescence is read every 10 minutes for 1 h 30 min, at 37° C., with a SPECTRAMAX M5e (Molecular Devices).
The previous enzymatic assay was repeated with FLG2-Hs being replaced with each of the peptides thus prepared.

filaggrin-2 (FLG2) = molecular target: T2, filaggrin-2 (FLG2); experiment: double-hybrid interaction of SASPase_28 fragments with filaggrin-2; type: binding; conditions: N-terminal fragment of SASPase_28, amino acids 11-86
Procedure: A first study using the “double-hybrid” technique was carried out using the whole 28 kDa SASPase protein in its wild-type form (SASPase_28, GENBANK Ref. gi16553767) and in its form mutated at the catalytic aspartic acid (SASPase_28D128A), and also the 37 kDa SASPase form (SASPase_37), in its whole form (GENBANK Ref. gi189409121), and a fragment corresponding to the N-terminal end of 84 amino acids of the protein relative to the sequence of SASPase_28 ([…]).
The SASPase sequences were fused to a DNA-binding domain, LexA, according to the orientation N-LexA-SASPase-C, so as to keep the C-terminal end of the SASPase free, with the exception of the SASPase_28N84 sequence which is fused to the LexA domain according to the orientation N-SASPase_28N84-LexA-C.
(§1) The prey sequences were fused to the Ga14 transcription-activating domain.
(§2) Supplementary experiments were carried out in order to reduce and identify the size of the sequences responsible for this interaction between SASPase_28 and filaggrin-2.

SASPase = molecular target: T3, SASPase; experiment: double-hybrid interaction of filaggrin-2 fragments with SASPase; type: binding; conditions: N-terminal S100 domain of filaggrin-2, amino acids 2-95
Procedure: The interaction with a SASPase was found using, as bait, the filaggrin-2 fragment identified as interacting with the SASPase_28 and SASPase_37 sequences, and corresponding to amino acids 2-213 of the Genbank sequence: gi:62122916.
The sequence was fused to the DNA-binding domain, LexA, according to the orientation N-LexA-FLG22-213-C.
as §1, §2

Molecule	ability to increase the catalytic activity of SASPase (SASPase_28)	further results
SEQ ID NO: 12: peptide of 8 to 20 amino acids synthesized from positions 71 to 90 of FLG2, SEQ ID NO: 9 (LMIFKLTMACNKVLS; /mol_type=“protein” /organism=“Homo sapiens”; listed as Homo sapiens)	particularly significant ability to increase	–
SEQ ID NO: 11: peptide of 8 to 20 amino acids synthesized from positions 71 to 90 of FLG2, SEQ ID NO: 9 (EFLLMIFKLTMACNK; /mol_type=“protein” /organism=“Homo sapiens”; listed as Homo sapiens)	particularly significant ability to increase	–
SEQ ID NO: 10: peptide of 8 to 20 amino acids synthesized from positions 71 to 90 of FLG2, SEQ ID NO: 9 (FTEFLLMIFKLTMACNKVLS; /mol_type=“protein” /organism=“Homo sapiens”; listed as Homo sapiens)	particularly significant ability to increase	–
SEQ ID NO: 15: peptide of 8 to 20 amino acids synthesized from positions 71 to 90 of FLG2, SEQ ID NO: 9 (TEFLLMIF; /mol_type=“protein” /organism=“Homo sapiens”; listed as Homo sapiens)	particularly significant ability to increase	–
SEQ ID NO: 14: peptide of 8 to 20 amino acids synthesized from positions 71 to 90 of FLG2, SEQ ID NO: 9 (TEFLLMIFKLTMACNK; /mol_type=“protein” /organism=“Homo sapiens”; listed as Homo sapiens)	particularly significant ability to increase	–
SEQ ID NO: 13: peptide of 8 to 20 amino acids synthesized from positions 71 to 90 of FLG2, SEQ ID NO: 9 (LMIFKLTMACNKV; /mol_type=“protein” /organism=“Homo sapiens”; listed as Homo sapiens)	particularly significant ability to increase	–
SEQ ID NO: 16: amino acid sequence extending from positions 97 to 173 of the Q53RT3 sequence of SASPase (protein, listed as Homo sapiens, /mol_type=“protein” /organism=“Homo sapiens”) RQHAFVPEPFDGANVVPNLWLHSFEVINDLNHWDHITKLRFLKESLRGEALGVYNRLSPQDQGDYGTVKEALLKAFG	–	interaction with FLG2 (filaggrin-2 (FLG2)): sufficient for the interaction with FLG2
SEQ ID NO: 9: amino acid sequence extending from positions 2 to 95 of filaggrin-2 Q5D862 (N-terminal S100 domain) (protein, listed as Homo sapiens, /mol_type=“protein” /organism=“Homo sapiens”) TDLLRSVVTVIDVFYKYTKQDGECGTLSKGELKELLEKELHPVLKNPDDPDTVDVIMHMLDRDHDRRLDFTEFLLMIFKLTMACNKVLSKEYCKA	–	interaction with SASPase (SASPase): involved in the interaction with SASPase
FLG2-Hs: recombinant filaggrin-2, positions 2 to 213 of Q5D862, fused to a Thioredoxin-His-S.Tag affinity label (protein, left off: large carriers) TDLLRSVVTVIDVFYKYTKQDGECGTLSKGELKELLEKELHPVLKNPDDPDTVDVIMHMLDRDHDRRLDFTEFLLMIFKLTMACNKVLSKEYCKASGSKKHRRGHRHQEEESETEEDEEDTPGHKSGYRHSSWSEGEEHGYSSGHSRGTVKCRHGSNSRRLGRQGNLSSSGNQEGSQKRYHRSSCGHSWSGGKDRHGSSSVELRERINKSHI	–	enzymatic activity of SASPase (SASPase_28; SASPase_28 0.025 mg/ml, substrate 0.01 mM, PBS, 37° C., FLG2-Hs at 0.01 to 10 times the SASPase concentration): significantly increased
